System: high cardiovascular risk patients with hypercholesterolemia
Assay: ODYSSEY LONG TERM: long-term safety and tolerability
[1] = Final analysis, Safety Analysis
[2] = Final analysis, Safety Analysis (N = 1550)
[3] = Safety population, 223 patients, pre-specified analysis
[4] = Safety population, 562 patients, pre-specified analysis
[5] = Safety population, treatment period, pre-specified analysis, 150 Q2W
[6] = TEAE period, pre-specified analysis
[7] = alirocumab patients with two consecutive LDL-C <25 mg/dL (n = 562), pre-specified analysis

Experimental: Safety parameters (adverse events [including adjudicated cardiovascular events], laboratory data, vital signs, and ECG) were assessed throughout the study.
Safety endpoints assessed in this trial were: cardiovascular events; allergic events; local tolerability at injection site; other adverse events (including hemolytic anemia); laboratory tests: urinalysis, hematology (red blood cell count, red blood cell distribution width (RDW), reticulocyte count, hemoglobin, hematocrit, platelets, white blood cell count with differential blood count), standard chemistry (sodium, potassium, chloride, bicarbonate, calcium, phosphorous, urea nitrogen, creatinine, uric acid, total protein, albumin, LDH, γ Glutamyl Transferase [γGT]), Vitamin E (alpha tocopherol) and other Fat Soluble Vitamins, cortisol (and reflexive ACTH levels, as needed, followed by ACTH stimulation test, as needed), Gonadal Hormone Assessments, Hepatitis C antibody, liver panel (ALT, AST, ALP, and total bilirubin), and CPK; vital signs including heart rate and blood pressure; and 12-lead ECG.
The safety population included all randomized patients who received at least one dose or part of a dose of the double-blind IMP.
Safety analyses were descriptive, performed on the safety population according to treatment actually received. The safety analysis focused on the TEAE period defined as the time from the first dose of double-blind injection up to 70 days after the last double-blind injection. TEAE which developed, worsened or became serious or PCSA occurring after the patient's first injection in the open-label extension study (LTS13643) were not considered in the TEAE period. TEAE period was truncated at the common study cut-off date.

Substance: Alirocumab: human anti-PCSK9 antibody; HCVR SEQ ID NO:1, LCVR SEQ ID NO:6; CDRs SEQ ID NOs 2/3/4/7/8/10
- Alanine aminotransferase >3 times ULN, % [1]: (1.8) %
- Alanine aminotransferase >3 times ULN, n/N [1]: 28/1533
- Aspartate aminotransferase >3 times ULN, % [1]: (1.4) %
- Aspartate aminotransferase >3 times ULN, n/N [1]: 22/1533
- Creatine kinase >3 times ULN, % [1]: (3.7) %
- Creatine kinase >3 times ULN, n/N [1]: 56/1507
- Diabetes in patients with no history of diabetes, % [1]: (1.8) %
- Diabetes in patients with no history of diabetes, n/N [1]: 18/994
- Worsening of diabetes in patients with history of diabetes, % [1]: (12.9) %
- Worsening of diabetes in patients with history of diabetes, n/N [1]: 72/556
- Amnesia, % of patients [2]: (0.3) %
- Amnesia, No. of patients [2]: 5
- CHD death including unknown cause, % of patients [2]: (0.3) %
- CHD death including unknown cause, No. of patients [2]: 4
- Confusional state, % of patients [2]: (0.3) %
- Confusional state, No. of patients [2]: 4
- Congestive heart failure requiring hospitalization, % of patients [2]: (0.6) %
- Congestive heart failure requiring hospitalization, No. of patients [2]: 9
- Fatal and non-fatal ischemic stroke, % of patients [2]: (0.6) %
- Fatal and non-fatal ischemic stroke, No. of patients [2]: 9
- General allergic reaction events, % of patients [2]: (10.1) %
- General allergic reaction events, No. of patients [2]: 156
- Hemolytic anemia, No. of patients [2]: 0
- Ischemia-driven coronary revascularization procedure, % of patients [2]: (3.1) %
- Ischemia-driven coronary revascularization procedure, No. of patients [2]: 48
- Local injection site reaction, % of patients [2]: (5.9) %
- Local injection site reaction, No. of patients [2]: 91
- Memory impairment, % of patients [2]: (0.3) %
- Memory impairment, No. of patients [2]: 4
- Myalgia, % of patients [2]: (5.4) %
- Myalgia, No. of patients [2]: 84
- Neurocognitive disorders, % of patients [2]: (1.2) %
- Neurocognitive disorders, No. of patients [2]: 18
- Neurological events, % of patients [2]: (4.2) %
- Neurological events, No. of patients [2]: 65
- Non-fatal MI, % of patients [2]: (0.9) %
- Non-fatal MI, No. of patients [2]: 14
- Ophthalmological events, % of patients [2]: (2.9) %
- Ophthalmological events, No. of patients [2]: 35
- Positively adjudicated cardiovascular events (including all cardiovascular AEs listed above), % of patients [2]: (4.6) %
- Positively adjudicated cardiovascular events (including all cardiovascular AEs listed above), No. of patients [2]: 72
- Post hoc analysis of a subgroup of adjudicated MACE, % of patients [2]: (1.7) %
- Post hoc analysis of a subgroup of adjudicated MACE, No. of patients [2]: 27
- TEAEs leading to death, % of patients [2]: (0.5) %
- TEAEs leading to death, No. of patients [2]: 8
- TEAEs leading to discontinuation, % of patients [2]: (7.2) %
- TEAEs leading to discontinuation, No. of patients [2]: 111
- TEAEs, % of patients [2]: (81.0) %
- TEAEs, No. of patients [2]: 1255
- Treatment-emergent SAEs, % of patients [2]: (18.7) %
- Treatment-emergent SAEs, No. of patients [2]: 290
- Time to the first calculated LDL-C value <15 mg/dL, mean (SD) [3]: 12.99 (12.43) weeks
- Time to the first calculated LDL-C value <15 mg/dL, median [3]: 8.14 weeks
- Time to the first calculated LDL-C value <25 mg/dL, mean (SD) [4]: 11.03 (11.51) weeks
- Time to the first calculated LDL-C value <25 mg/dL, median [4]: 4.86 weeks
- Patients with 2 consecutive calculated LDL-C value <15 mg/dL, % [5]: (14.8%)
- Patients with 2 consecutive calculated LDL-C value <15 mg/dL, n/N [5]: 223/1503
- Patients with 2 consecutive calculated LDL-C value <25 mg/dL, % [5]: (37.4%)
- Patients with 2 consecutive calculated LDL-C value <25 mg/dL, n/N [5]: 562/1503
- Cardiovascular death per adjudication [6]: 5 (0.3%) n (%)
- Patients with decreased plasma vitamin E levels below the outer limit of normal (31 out of 1461) [6]: 2.1%
- SAEs [6]: 255 (16.5%) n (%)
- AE of special interest: All adjudicated cardiovascular events, % of patients [7]: 4.3%
- AE of special interest: General allergic reaction events, % of patients [7]: 8.0%
- AE of special interest: Haemolytic anaemia, % (n) of patients [7]: 0
- AE of special interest: Neurocognitive disorders, % of patients [7]: 0.7%
- AE of special interest: Neurological events, % of patients [7]: 3.2%
- AE of special interest: Ophthalmological events, % of patients [7]: 2.5%
- AE of special interest: Treament-emergent local injection site reactions, % of patients [7]: 6.2%
- Neurocognitive AE: Amnesia, % (n) of patients [7]: 0
- Neurocognitive AE: Any neurocognitive disorder, % of patients [7]: 0.7%
- Neurocognitive AE: Confusion postoperative, % (n) of patients [7]: 0
- Neurocognitive AE: Confusional state, % of patients [7]: 0.2% (1)
- Neurocognitive AE: Dementia, % of patients [7]: 0.2% (1)
- Neurocognitive AE: Disorientation, % (n) of patients [7]: 0
- Neurocognitive AE: Disturbance in attention, % (n) of patients [7]: 0
- Neurocognitive AE: Frontotemporal dementia, % of patients [7]: 0.2% (1)
- Neurocognitive AE: Memory impairment, % (n) of patients [7]: 0
- Neurocognitive AE: Transient global amnesia, % (n) of patients [7]: 0
- TEAE ALT increase, % of patients [7]: 0.7%
- TEAE AST increase, % of patients [7]: 0%
- TEAE Angina pectoris, % of patients [7]: 1.8% (10)
- TEAE Arthralgia, % of patients [7]: 3.2% (18)
- TEAE Atrial fibrillation, % of patients [7]: 1.6% (9)
- TEAE Back pain, % of patients [7]: 5.0% (28)
- TEAE Bronchitis, % of patients [7]: 5.2% (29)
- TEAE CPK increase, % of patients [7]: 0.2%
- TEAE Cellulitis, % of patients [7]: 1.6% (9)
- TEAE Confusion, % of patients [7]: 1.2% (7)
- TEAE Constipation, % of patients [7]: 1.6% (9)
- TEAE Cough, % of patients [7]: 2.0% (11)
- TEAE Depression, % of patients [7]: 1.4% (8)
- TEAE Diarrhea, % of patients [7]: 3.9% (22)
- TEAE Dizziness, % of patients [7]: 1.4% (8)
- TEAE Fall, % of patients [7]: 1.6% (9)
- TEAE Fatigue, % of patients [7]: 3.0% (17)
- TEAE Gastoenteritis, % of patients [7]: 0.7% (4)
- TEAE Headache, % of patients [7]: 1.8% (10)
- TEAE Hypertension, % of patients [7]: 2.0% (11)
- TEAE Influenza, % of patients [7]: 4.1% (23)
- TEAE Injection site reaction, % of patients [7]: 3.6% (20)
- TEAE Lower respiratory tract infection (LRTI), % of patients [7]: 2.8% (16)
- TEAE Muscle spasms, % of patients [7]: 2.8% (16)
- TEAE Musculoskeletal pain, % of patients [7]: 1.4% (8)
- TEAE Myalgia, % of patients [7]: 3.0% (17)
- TEAE Nasopharyngitis, % of patients [7]: 10.0% (56)
- TEAE Nausea, % of patients [7]: 0.9% (5)
- TEAE Non-cardiac chest pain, % of patients [7]: 2.0% (11)
- TEAE Osteoarthritis, % of patients [7]: 2.1% (12)
- TEAE Pain in extremity, % of patients [7]: 2.1% (12)
- TEAE Rhinitis, % of patients [7]: 1.2% (7)
- TEAE Sinusitis, % of patients [7]: 3.0% (17)
- TEAE Type-2 diabetes mellitus, % of patients [7]: 2.5% (14)
- TEAE leading to death, % of patients [7]: 0.5% (3)
- TEAEs by System-Organ-Class: Blood and lymphatic system disorders, % of patients [7]: 1.6% (9)
- TEAEs by System-Organ-Class: Cardiac disorders, % of patients [7]: 7.5% (42)
- TEAEs by System-Organ-Class: Ear and labyrinth disorders, % of patients [7]: 1.2% (7)
- TEAEs by System-Organ-Class: Eye disorders, % of patients [7]: 6.4% (36)
- TEAEs by System-Organ-Class: Gastrointestinal disorders, % of patients [7]: 13.7% (77)
- TEAEs by System-Organ-Class: General disorders and administration site conditions, % of patients [7]: 11.0% (62)
- TEAEs by System-Organ-Class: Injury, poisoning, and procedural complications, % of patients [7]: 10.5% (59)

Reference: US20160137746A1, “METHODS FOR TREATING HIGH CARDIOVASCULAR RISK PATIENTS WITH HYPERCHOLESTEROLEMIA” (Sanofi Biotechnology, priority 2014, published 2016)
